According to patent US20260227403A1 (HENRY M JACKSON FOUNDATION FOR THE ADVANCEMENT OF MILITARY …, published 2026):

Experiments:
[1] = target: T1, P25 (alanine substituted, FIG. 3 panel E); assay: ELISA: 500 ng peptide coated per well, 29E4 at 40 ng/mL, HRP goat anti-rabbit Ig 1:16,000, ABS 450 nm, duplicates [CONT. 2]
T1 construct: also called V235 to alanine
From the text: (§1) HRP Goat anti-rabbit Ig was applied at 1:16,000 dilution in all reactions.
(§2) Peptides were synthesized to achieve ≥70% HPLC purity by a commercial vendor (GenScript Biotech, Piscataway, NJ). Peptides were reconstituted in either water, or with addition of acetonitrile, methanol, 10% acetic acid, or DMSO, depending on the overall charge of each peptide. Key residues required for mAb binding were probed by ELISA using overlapping peptides, truncated peptides and alanine substituted peptides. Reactions were performed in duplicate using NUNC 96-well flatbottom MaxiSorp plates (Thermo Scientific). After coating each well with 500 ng of peptide in 100 μL coating buffer (50 mM NaHCO₃, pH 9.6), the plates were sealed and incubated at 4° C. overnight. […] Plates were then washed once with wash buffer, incubated with 100 μL mAb 29E4 (serially diluted from 1 mg/mL) for 1 hour at 37° C. Plates were further washed four times with wash buffer, and then incubated at 37° C. with 100 μL of a horse radish peroxidase (HRP)-conjugated secondary antibody against the primary antibody, diluted 1:16,000 according to manufacturer's protocols (KPL, Inc., Gaithersburg, MD). After washing four times with wash buffer, 100 μL of K-Blue Aqueous TMB substrate (Neogen, Lexington, KY) was added to the plates and incubated uncovered for 30 minutes at room temperature. To stop the reaction, 100 μL of 2 N Sulphuric acid was added to each well and absorbance were measured immediately at 450 nm. All dilutions of reagents were performed in ELISA diluent (20% NGS in 1×PBS with 0.1% Triton-X 100).

[2] = target: T2, P15 (alanine substituted, FIG. 3 panel E); assay: as above
T2 construct: also called Q225 to alanine
T2 sequence (peptide, as listed by the source): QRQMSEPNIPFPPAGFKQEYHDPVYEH
From the text: as §1, §2

[3] = target: T3, P14 (alanine substituted, FIG. 3 panel E); assay: as above
T3 construct: also called P224 to alanine
T3 sequence (peptide, as listed by the source): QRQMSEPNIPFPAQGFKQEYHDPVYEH
From the text: as §1, §2

P41 = target: T4, P41; assay: ELISA: 1 µg peptide coated per well, 29E4 at 20 ng/mL, HRP goat anti-rabbit Ig 1:16,000, ABS 450 nm, duplicates [CONT. 1]
T4 construct: N-terminal truncation of P1
T4 peptide: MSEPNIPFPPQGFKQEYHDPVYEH

P48 = target: T5, P48; assay: as above
T5 construct: C-terminal truncation of P1
T5 peptide: QRQMSEPNIPFPPQG

P29 = target: T6, P29; assay: as above
T6 construct: C-terminal truncation of P1

P31 = target: T7, P31; assay: as above
T7 construct: C-terminal truncation of P1
T7 peptide: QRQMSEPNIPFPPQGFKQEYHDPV

P33 = target: T8, P33; assay: as above
T8 construct: C-terminal truncation of P1
T8 peptide: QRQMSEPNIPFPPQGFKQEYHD

P50 = target: T9, P50; assay: as above
T9 construct: C-terminal truncation of P1
T9 peptide: QRQMSEPNIPFPP

P39 = target: T10, P39; assay: as above
T10 construct: N-terminal truncation of P1

P30 = target: T11, P30; assay: as above
T11 construct: C-terminal truncation of P1

P34 = target: T12, P34; assay: as above
T12 construct: C-terminal truncation of P1
T12 peptide: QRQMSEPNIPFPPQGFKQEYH

P42 = target: T13, P42; assay: as above
T13 construct: N-terminal truncation of P1
T13 peptide: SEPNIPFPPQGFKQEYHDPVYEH

peptide P40 (…) = target: T14, peptide P40 (…) (human); assay: as above
T14 construct: N-terminal truncation of the immunogenic peptide P1

P32 = target: T15, P32; assay: as above
T15 construct: C-terminal truncation of P1
T15 peptide: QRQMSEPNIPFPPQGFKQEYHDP

[4] = target: T16, peptide P38 (QRQMSEPNIPFPPQGFK) (human); assay: as above
T16 construct: C-terminal truncation of the immunogenic peptide P1
T16 peptide: QRQMSEPNIPFPPQGFK

P35 = target: T17, P35; assay: as above
T17 construct: C-terminal truncation of P1
T17 peptide: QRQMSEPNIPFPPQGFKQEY

T1 sequence (peptide, as listed by the source): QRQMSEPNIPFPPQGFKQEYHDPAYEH

binding result [1]: binds | binding result [2]: binds | binding result [3]: binds | binding result (P41): binds | binding result (P48): binds | binding result (P29): binds | binding result (P31): binds | binding result (P33): binds | binding result (P50): binds | binding result (P39): binds | binding result (P30): binds | binding result (P34): binds | binding result (P42): binds | binding result (peptide P40 (…)): binds | binding result (P32): binds | binding result [4]: binds | binding result (P35): binds
B1: ETV1 rabbit monoclonal antibody (29E4) (antibody, V domains shown)
VH: QELEESGGDLVKPGASLTLTCTASGFFFSAENHICWVRQAPGKGLEWIGCVYIGSYVGGSGDPYYASWAKGRFTISKTSSTTVTLQMSSLTAADTATYFCARDLGSLWGPGTLVTVSS
VL: DVVMTQTASSVSAAVGGTVTIACQSSQSVYDNNNLAWFQQKPGQPPKRLIYSASTLASGVSSRFKGSGYGTQFTLTISDVQCDDAATYYCVGAFSGYIFVFGGGTEVVVK
notes: constant regions are not; also called 29E4 mAb; ETV1 29E4 mAb
